Assay results reported in doi:10.1101/2021.04.13.439745.

Target: T1, Pil1-mCherry-Atg38(161-190) (S. pombe), O94427
T1 chain: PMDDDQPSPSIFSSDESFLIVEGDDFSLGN
Conditions: remark: other sources report otherwise

B1: GFP-Atg8^(P52A R67A), O94272 1-116 (natural protein)
chain: MRSQFKDDFSFEKRKTESQRIREKYPDRIPVICEKVDKSDIAAIDKKKYLVASDLTVGQFVYVIRKAIKLSPEKAIFIFIDEILPPTAALMSTIYEEHKSEDGFLYITYSGENTFG
A PCC (Pearson correlation coefficient of colocalisation) of 0.42 was found for B1 in this work.
